According to patent CN110734897A (ZHEJIANG BLUE SHIELD PHARMA CO LTD, dated 2020):

Target: T1, 重组人SIRPα-his融合蛋白 (Acro Biosystems SIA-H5225) (human, UniProt P78324 31-370)
T1 construct: Bought reagent; also called 人SIRPα重组蛋白; not shown: his tag
Experiment: indirect ELISA screen of hybridoma supernatants, SIRPα-his coated

T1 sequence (P78324 31-370 limits assumed): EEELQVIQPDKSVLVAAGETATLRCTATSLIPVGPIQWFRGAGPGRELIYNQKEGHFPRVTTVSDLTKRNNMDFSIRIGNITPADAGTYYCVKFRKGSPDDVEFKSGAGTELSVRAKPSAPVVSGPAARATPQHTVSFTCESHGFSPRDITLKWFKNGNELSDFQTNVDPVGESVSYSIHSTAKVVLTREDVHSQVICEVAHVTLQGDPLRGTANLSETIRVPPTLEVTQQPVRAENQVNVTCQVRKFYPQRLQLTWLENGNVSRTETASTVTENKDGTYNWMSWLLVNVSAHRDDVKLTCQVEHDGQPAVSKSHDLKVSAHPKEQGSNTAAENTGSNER

B1: 杂交瘤细胞株12G6产生的抗人SIRPα单克隆抗体 (antibody, IgG2b, V domains shown)
VH: QIQLVQSGPELKKPGETVKISCKASGYTFTNYGMHWVKQAPGKDLKWMGWINTYTGEPTNADDFKGRFAFSLETSDRTAFLQINNLKNEDTATYFCARGHHYGNYAWFAYWGQGTLVTVSA
VL: DIVMTQSHKFMSTSVGDRVSITCKASQDVSLAVAWYQQKPGQSPKVLIYWASTRHTGVPDRFAGSGSGTDYTLTISSVQAEDLALYYCQQHYSTPWTFGGGTKLEIN
notes: also called 纯化的抗人SIRPα单克隆抗体
  binding result: binds
